This is an account of results in patent US20200109211A1.

For the assay, the target named is human CD160 (CD160 GPI isoform) on cells (human) (UniProt O95971). The assay is described as follows: flow cytometry, percentage of labelled YT2C2 NK cells, 0.39-50 nM; the text means weaker binding.
human CD160 (CD160 GPI isoform) on cells (human), sequence (O95971 25-159 limits assumed): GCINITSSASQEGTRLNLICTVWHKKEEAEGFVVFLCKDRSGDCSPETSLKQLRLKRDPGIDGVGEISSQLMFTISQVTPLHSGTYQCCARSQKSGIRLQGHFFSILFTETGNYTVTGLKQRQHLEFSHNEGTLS

B1: Fab CH1 IgG1 D12 (Fab)
heavy: QVQLVQSGAEVKKPGASVKVSCKASGYTFSDFWMQWIRQAPGQGLEWIGAIYPGDDDARVTQKFRGRATLTADKSTSTAYMELSSLRSEDTAVYYCARRGIAAVVGGFDYWGQGTTLTVSSASTKGPSVFPLAPSSKSTSGGTAALGCLVKDYFPEPVTVSWNSGALTSGVHTFPAVLQSSGLYSLSSVVTVPSSSLGTQTYICNVNHKPSNTKVDKRV
light: EIVLTQSPATLSLSPGERATLSCRASQSISNHLHWYQQKPGQAPRLLIKYASQSISGIPARFSGSGSGTDFTLTISSLEPEDFAVYFCQQSNSWPLTFGGGTKVEIKRTVAAPSVFIFPPSDEQLKSGTASVVCLLNNFYPREAKVQWKVDNALQSGNSQESVTEQDSKDSTYSLSSTLTLSKADYEKHKVYACEVTHQGLSSPVTKSFNRGEC
B1 gave an EC50, factor against H7 IgG4 (ELB01101) of 2 fold.
